PMC5660093, “Structure of SgK223 pseudokinase reveals novel mechanisms of homotypic and heterotypic association” (Nature Communications, 2017)
Values belong to the binder of their own block, whether it stands above or below them.

B1: SgK269-αN1-PsK-Cter (WT) (domain or fragment, human, UniProt Q9H792 1267-1746, looked up)
chain: GIQKPQRQALYRGLENREEVVGKIRSLHTDALKKLAVKCEDLFMAGQKDQLRFGVDSWSDFRLTSDKPCCEAGDAVYYTASYAKDPLNNYAVKICKSKAKESQQYYHSLAVRQSLAVHFNIQQDCGHFLAEVPNRLLPWEDPDDPEKDEDDMEETEEDAKGETDGKNPKPCSEAASSQKENQGVMSKKQRSHVVVITREVPCLTVADFVRDSLAQHGKSPDLYERQVCLLLLQLCSGLEHLKPYHVTHCDLRLENLLLVHYQPGGTAQGFGPAEPSPTSSYPTRLIVSNFSQAKQKSHLVDPEILRDQSRLAPEIITATQYKKCDEFQTGILIYEMLHLPNPFDENPELKEREYTRADLPRIPFRSPYSRGLQQLASCLLNPNPSERILISDAKGILQCLLWGPREDLFQTFTACPSLVQRNTLLQNWLDIKRTLLMIKFAEKSLDREGGISLEDWLCAQYLAFATTDSLSCIVKILQHR
notes: SgK269 (PEAK1), human, residues 1267-1746: αN1 helix, pseudokinase domain and C-terminal helices; also called SgK269-WT (αN1-PsK-Cter); SgK269-WT; source: E. coli C41(DE3), purified (Ni-NTA, SEC)
B2: His tag cleaved SgK269-αN1-PsK-Cter F1609A (domain or fragment, human, UniProt Q9H792 1267-1746, looked up)
chain: GIQKPQRQALYRGLENREEVVGKIRSLHTDALKKLAVKCEDLFMAGQKDQLRFGVDSWSDFRLTSDKPCCEAGDAVYYTASYAKDPLNNYAVKICKSKAKESQQYYHSLAVRQSLAVHFNIQQDCGHFLAEVPNRLLPWEDPDDPEKDEDDMEETEEDAKGETDGKNPKPCSEAASSQKENQGVMSKKQRSHVVVITREVPCLTVADFVRDSLAQHGKSPDLYERQVCLLLLQLCSGLEHLKPYHVTHCDLRLENLLLVHYQPGGTAQGFGPAEPSPTSSYPTRLIVSNFSQAKQKSHLVDPEILRDQSRLAPEIITATQYKKCDEFQTGILIYEMLHLPNPADENPELKEREYTRADLPRIPFRSPYSRGLQQLASCLLNPNPSERILISDAKGILQCLLWGPREDLFQTFTACPSLVQRNTLLQNWLDIKRTLLMIKFAEKSLDREGGISLEDWLCAQYLAFATTDSLSCIVKILQHR
notes: SgK269 (PEAK1), human, residues 1267-1746; also called SgK269-αN1-PsK-Cter Phe1609Ala; source: E. coli C41(DE3), purified (Ni-NTA, SEC); not shown: His tag, N-terminal, cleaved

Legend:
[1] = target: the molecule itself; test: AUC; sedimentation velocity, WT and oligomer-interface mutants each at 20 μM; 20 mM Tris-HCl, 150 mM NaCl, pH 8.0, 20 °C
[2] = target: the molecule itself; test: SEC; peaks from the Mono Q column on Superdex 200 Increase 10/300 GL; 20 mM Tris pH 8.5, 200 mM NaCl, 1 mM TCEP
[3] = target: the molecule itself; test: AUC; sedimentation velocity, WT and mutants each at 3.0 μM; 20 mM Tris-HCl, 150 mM NaCl, pH 8.0, 20 °C
[4] = target: the molecule itself; test: AUC; sedimentation velocity at 0.6, 1.2 and 2.3 μM; 20 mM Tris-HCl, 150 mM NaCl, pH 8.0, 20 °C; dimer to monomers
SgK269-αN1-PsK-Cter (WT) = target: B1; test: SEC; SgK223 and SgK269 proteins mixed equimolar at 29.06 μM, 15 min on ice; Superdex 200 Increase 10/300 GL; 20 mM Tris pH 8.5, 200 mM NaCl, 5% glycerol, 1 mM TCEP; preformed homodimers mixed; conditions: both partners purified
[5] = target: B2; test: anion exchange chromatography (Mono Q); the two αG mutants mixed equimolar at 20 μM, overnight on ice, diluted five times, Mono Q 5/50 GL, linear NaCl gradient, 20 mM Tris pH 8.5; peaks analysed by SDS-PAGE; conditions: both partners purified
[6] = target: the molecule itself; test: SAXS; inline gel filtration (Superdex 200 5/150); 20 mM Tris pH 8.5, 200 mM NaCl, 1 mM TCEP, 5% glycerol, 12 °C; WT injected at 2.2 mg/ml, I1243A at 3.5 mg/ml

Binder: B1
binding result [1]: binds

Binder: B2
stoichiometry N [2]: 2

B3: SgK223-αN1-PsK-Cter F974A (domain or fragment, human, UniProt Q86YV5 932-1406, looked up)
chain: GSTQLQLHGLLSNISSKEGTYAKLGGLYTQSLARLVAKCEDLAMGGQKKELHFNENNWSLFKLTCNKPCCDSGDAIYYCATCSEDPGSTYAVKICKAPEPKTVSYCSPSVPVHFNIQQDCGHFVASVPSSMLSSPDAPKDPVPALPTHPPAQEQDCVVVITREVPHQTASDFVRDSAASHQAEPEAYERRVCFLLLQLCNGLEHLKEHGIIHRDLCLENLLLVHCTLQAGPGPAPAPAPAPAPAAAAPPCSSAAPPAGGTLSPAAGPASPEGPREKQLPRLIISNFLKAKQKPGGTPNLQQKKSQARLAPEIVSASQYRKFDEFQTGILIYELLHQPNPFEVRAQLRERDYRQEDLPPLPALSLYSPGLQQLAHLLLEADPIKRIRIGEAKRVLQCLLWGPRRELVQQPGTSEEALCGTLHNWIDMKRALMMMKFAEKAVDRRRGVELEDWLCCQYLASAEPGALLQSLKLLQLL
notes: SgK223 (Pragmin), human, residues 932-1406; source: E. coli C41(DE3), purified (Ni-NTA, SEC)
binding result [3]: binds

binding result (SgK269-αN1-PsK-Cter (WT)): binds
B4: SgK223-αN1-PsK-Cter (WT) (domain or fragment, human, UniProt Q86YV5 932-1406, looked up)
chain: GSTQLQLHGLLSNISSKEGTYAKLGGLYTQSLARLVAKCEDLFMGGQKKELHFNENNWSLFKLTCNKPCCDSGDAIYYCATCSEDPGSTYAVKICKAPEPKTVSYCSPSVPVHFNIQQDCGHFVASVPSSMLSSPDAPKDPVPALPTHPPAQEQDCVVVITREVPHQTASDFVRDSAASHQAEPEAYERRVCFLLLQLCNGLEHLKEHGIIHRDLCLENLLLVHCTLQAGPGPAPAPAPAPAPAAAAPPCSSAAPPAGGTLSPAAGPASPEGPREKQLPRLIISNFLKAKQKPGGTPNLQQKKSQARLAPEIVSASQYRKFDEFQTGILIYELLHQPNPFEVRAQLRERDYRQEDLPPLPALSLYSPGLQQLAHLLLEADPIKRIRIGEAKRVLQCLLWGPRRELVQQPGTSEEALCGTLHNWIDMKRALMMMKFAEKAVDRRRGVELEDWLCCQYLASAEPGALLQSLKLLQLL
notes: SgK223 (Pragmin), human, residues 932-1406: αN1 helix, pseudokinase domain and C-terminal helices; Modified pCOLD IV vector with an N-terminal His TEV cleavage tag; Monomer MW printed as 54 kDa; A seleno-methionine form was also crystallised; also called WT-SgK223-αN1-PsK-Cter; SgK223-WT (αN1-PsK-Cter); source: E. coli C41(DE3), purified (Ni-NTA, SEC)
stoichiometry N [4]: 2

B5: SgK223-αN1-PsK-Cter W1354A (domain or fragment, human, UniProt Q86YV5 932-1406, looked up)
chain: GSTQLQLHGLLSNISSKEGTYAKLGGLYTQSLARLVAKCEDLFMGGQKKELHFNENNWSLFKLTCNKPCCDSGDAIYYCATCSEDPGSTYAVKICKAPEPKTVSYCSPSVPVHFNIQQDCGHFVASVPSSMLSSPDAPKDPVPALPTHPPAQEQDCVVVITREVPHQTASDFVRDSAASHQAEPEAYERRVCFLLLQLCNGLEHLKEHGIIHRDLCLENLLLVHCTLQAGPGPAPAPAPAPAPAAAAPPCSSAAPPAGGTLSPAAGPASPEGPREKQLPRLIISNFLKAKQKPGGTPNLQQKKSQARLAPEIVSASQYRKFDEFQTGILIYELLHQPNPFEVRAQLRERDYRQEDLPPLPALSLYSPGLQQLAHLLLEADPIKRIRIGEAKRVLQCLLWGPRRELVQQPGTSEEALCGTLHNAIDMKRALMMMKFAEKAVDRRRGVELEDWLCCQYLASAEPGALLQSLKLLQLL
notes: SgK223 (Pragmin), human, residues 932-1406; also called alanine mutation of Trp1354; source: E. coli C41(DE3), purified (Ni-NTA, SEC)
binding result [3]: binds

binding result [5]: binds
B6: SgK223-αN1-PsK-Cter F1271A (domain or fragment, human, UniProt Q86YV5 932-1406, looked up)
chain: GSTQLQLHGLLSNISSKEGTYAKLGGLYTQSLARLVAKCEDLFMGGQKKELHFNENNWSLFKLTCNKPCCDSGDAIYYCATCSEDPGSTYAVKICKAPEPKTVSYCSPSVPVHFNIQQDCGHFVASVPSSMLSSPDAPKDPVPALPTHPPAQEQDCVVVITREVPHQTASDFVRDSAASHQAEPEAYERRVCFLLLQLCNGLEHLKEHGIIHRDLCLENLLLVHCTLQAGPGPAPAPAPAPAPAAAAPPCSSAAPPAGGTLSPAAGPASPEGPREKQLPRLIISNFLKAKQKPGGTPNLQQKKSQARLAPEIVSASQYRKFDEFQTGILIYELLHQPNPAEVRAQLRERDYRQEDLPPLPALSLYSPGLQQLAHLLLEADPIKRIRIGEAKRVLQCLLWGPRRELVQQPGTSEEALCGTLHNWIDMKRALMMMKFAEKAVDRRRGVELEDWLCCQYLASAEPGALLQSLKLLQLL
notes: SgK223 (Pragmin), human, residues 932-1406; also called SgK223-αN1-PsK-Cter Phe1271Ala; His-SgK223-αN1-PsK-Cter; source: E. coli C41(DE3), purified (Ni-NTA, SEC); not shown: His tag, N-terminal, kept
stoichiometry N [1]: 2

B7: SgK223-αN1-PsK-Cter Y1282A (domain or fragment, human, UniProt Q86YV5 932-1406, looked up)
chain: GSTQLQLHGLLSNISSKEGTYAKLGGLYTQSLARLVAKCEDLFMGGQKKELHFNENNWSLFKLTCNKPCCDSGDAIYYCATCSEDPGSTYAVKICKAPEPKTVSYCSPSVPVHFNIQQDCGHFVASVPSSMLSSPDAPKDPVPALPTHPPAQEQDCVVVITREVPHQTASDFVRDSAASHQAEPEAYERRVCFLLLQLCNGLEHLKEHGIIHRDLCLENLLLVHCTLQAGPGPAPAPAPAPAPAAAAPPCSSAAPPAGGTLSPAAGPASPEGPREKQLPRLIISNFLKAKQKPGGTPNLQQKKSQARLAPEIVSASQYRKFDEFQTGILIYELLHQPNPFEVRAQLRERDARQEDLPPLPALSLYSPGLQQLAHLLLEADPIKRIRIGEAKRVLQCLLWGPRRELVQQPGTSEEALCGTLHNWIDMKRALMMMKFAEKAVDRRRGVELEDWLCCQYLASAEPGALLQSLKLLQLL
notes: as for B3
stoichiometry N [1]: 2

B8: SgK223 αN1-PsK-Cter I1243A (domain or fragment, human, UniProt Q86YV5 932-1406, looked up)
chain: GSTQLQLHGLLSNISSKEGTYAKLGGLYTQSLARLVAKCEDLFMGGQKKELHFNENNWSLFKLTCNKPCCDSGDAIYYCATCSEDPGSTYAVKICKAPEPKTVSYCSPSVPVHFNIQQDCGHFVASVPSSMLSSPDAPKDPVPALPTHPPAQEQDCVVVITREVPHQTASDFVRDSAASHQAEPEAYERRVCFLLLQLCNGLEHLKEHGIIHRDLCLENLLLVHCTLQAGPGPAPAPAPAPAPAAAAPPCSSAAPPAGGTLSPAAGPASPEGPREKQLPRLIISNFLKAKQKPGGTPNLQQKKSQARLAPEAVSASQYRKFDEFQTGILIYELLHQPNPFEVRAQLRERDYRQEDLPPLPALSLYSPGLQQLAHLLLEADPIKRIRIGEAKRVLQCLLWGPRRELVQQPGTSEEALCGTLHNWIDMKRALMMMKFAEKAVDRRRGVELEDWLCCQYLASAEPGALLQSLKLLQLL
notes: as for B3
stoichiometry N [6]: 2
